Source: the supplement of paper PMC9170038

Test system: MS2 coat protein
Experiment: apparent KD of MS2 coat protein; designed switch direction (-1 OFF switch, 1 ON switch): -1; higher = weaker reporter binding
In short: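 Three titration conditions were used: no input, 200 uM small-molecule ligand, and an oligonucleotide input. In each, SNAP-549-labelled MS2 coat protein was raised from 0.7 or 1.5 nM, doubling, to 3 µM over designed RNA switches transcribed on Illumina chips by stalled E. coli RNA polymerase. Curve fits of normalised cluster fluorescence gave values whose per-design median over clusters is the apparent KD.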

[1] = Eterna round: R95, input ligand: FMN 200 uM
[2] = Eterna round: R95, input ligand: microRNA oligo, concentration not stated
[3] = Eterna round: R95, input ligand: none
[4] = input ligand: microRNA oligo, concentration not stated

| Sequence | apparent KD of MS2 coat protein [1] | apparent KD of MS2 coat protein [2] | apparent KD of MS2 coat protein [3] | apparent KD of MS2 coat protein (input ligand: FMN 200 uM) | apparent KD of MS2 coat protein (input ligand: none) | apparent KD of MS2 coat protein [4] |
| --- | --- | --- | --- | --- | --- | --- |
| CGUACUGAAGUCAGGAUAUUGUCUCGGAUACGAAACAAGAAGGGACAUGAGGAUCACCCAUGUAGACAGUACGA [Malc #30 mod 3] (puzzle: Brourd's mod of Exclusion 4) | 19.3 nM | 20.5 nM | 24.9 nM | – | – | – |
| CGUAUGUCAGGAUAUCGUGCAUACAACGAAAGUUCUAUGUGCGAGAAGGGACAUGAGGAUCACCCAUGUCUUCG [Omei Ex4 A13] (Eterna round: R97, puzzle: Exclusion 4) | – | – | – | 42.8 nM | 23.6 nM | – |
| CGUCAAGCUUCGGCAGGCAACAUGAGGAUCACCCAUGUCUGCGUUCGUCUUAACUGAUCUAGGGAUAGAUCGUGUGU [Eternabot (L1) Solution 49] (Eterna round: R97, puzzle: Sensor, turn-off variant 1) | – | – | – | 18.3 nM | 15.4 nM | – |
| CGUCCUGAUGACAACUUACAUGAGGAUCACCCAUGUGCCUCGCAGGAUAUCCCAGCACGUCGCAAGGAGAAGGGCGACGCGCCA [Ceeninge] (Eterna round: R96, puzzle: Exclusion NG 3) | – | – | – | 18 nM | 19 nM | 13.7 nM |
| CGUCGAAAUGUAGGAUAUCUGCACGUUUAGUGCAGAGAAGGACAUGAGGAUCACCCAUGUAGAUCACGACGAAUUAAUUUAAUU [ENG1/5-C2] (Eterna round: R96, puzzle: Exclusion NG 1) | – | – | – | 374 nM | 65.8 nM | 47.3 nM |
| CGUCUGUAAGGAUAUGGUUGCAUCAACAUGAGGAUCACCCAUGUAACAUGGGACUAGUGAUUAGAAGGUACGAACG [EX5 #58] (Eterna round: R97, puzzle: Exclusion 5) | – | – | – | 156 nM | 142 nM | – |
| CGUCUGUGAGGAUAUGGUAUCGUUUACAUGAGGAUCACCCAUGUUACAUGGGACUAGAGACUAGAAGGUACUGACG [EX5 #47] (Eterna round: R97, puzzle: Exclusion 5) | – | – | – | 628 nM | 878 nM | – |
| CGUGACUCAGGAUAUCUAUAAUAUCACAUGAGGAUCACCCAUGUCCAGCAAUAGCUGGAGGGAGAAGGGAGUCACG [Fiskers Ex 5 - 40] (puzzle: Exclusion 5) | – | 195 nM | – | – | – | – |
| CGUGACUGAGGAUAUCUAUAUUAUCACAUGAGGAUCACCCAUGUCCAGCGAAAGCUGGAGGGAGAAGGCAGUCACG [Fiskers Ex 5 - 28] (puzzle: Exclusion 5) | 17.1 nM | 49.8 nM | 32.4 nM | – | – | – |
| CGUUCGCGUGUAGGAUAUGUGUCUGUGUCGGGCGCAGAAGGACAUGAGGAUCACCCAUGUCUGCGGGUGUGGGCGCUCUCUGCG [-29, -28 kcal A 14%] (Eterna round: R96, puzzle: Exclusion NG 1) | – | – | – | 69.6 nM | 26.9 nM | 18.2 nM |
| CGUUGAAUAGGAUAUACAUGAGGAUCACCCAUGUGAAAUUAUAGUGAGGAAAUGAAAAGUAGAAGGGUUUGACA [Mod of Mat 8 - Jieux - Exclusion 3] (Eterna round: R97, puzzle: Exclusion 3) | – | – | – | 27.6 nM | 30.4 nM | – |
| CGUUGCAGAGGAUAUACAUGAGGAUCACCCAUGUGAAAUUAUAGUGAGGAAAUGAAAAGUAGAAGGCUGUGACA [Mod of Mat 11 - Jieux - Exclusion 3] (Eterna round: R97, puzzle: Exclusion 3) | – | – | – | 267 nM | 47.3 nM | – |
| CGUUGGAAAGGAUAUACAUGAGGAUCACCCAUGUGAAAUUAUAGUGAGGAAAUGAAAAGUAGAAGGUUCUGACA [Mod of Mat 6 - Jieux - Exclusion 3] (Eterna round: R97, puzzle: Exclusion 3) | – | – | – | 61.2 nM | 25 nM | – |
| CUAAAUCAUGUAGGAUAUGCGUGGCAAAGCUAUGCAGAAGGACAUGAGGAUCACCCAUGUCAUUCCGUCUGCGUACAGACGGGA [Mat - Exclusion NG 1 - Mod of JL - D49] (Eterna round: R96, puzzle: Exclusion NG 1) | – | – | – | 187 nM | 24.9 nM | 19.9 nM |
| CUAAAUCAUGUAGGAUAUGCGUGGCAAAGCUAUGCAGAAGGACAUGAGGAUCACCCAUGUCAUUCCGUCUGGAGACAGACGGGA [Mat - Exclusion NG 1 - Mod of JL - D54] (Eterna round: R96, puzzle: Exclusion NG 1) | – | – | – | 182 nM | 25 nM | 20.7 nM |
| CUAAAUCAUGUAGGAUAUGCGUGGCAAAGCUAUGCAGAAGGACAUGAGGAUCACCCAUGUCUUUCCGUCUGAGUACAGACGGGA [Mat - Exclusion NG 1 - Mod of JL - D46] (Eterna round: R96, puzzle: Exclusion NG 1) | – | – | – | 166 nM | 26.6 nM | 21.7 nM |
| CUAAUUCAAGGAUAUACAUGAGGAUCACCCAUGUGAGGGAGUGACAAGUUGUCGGGAUGUAGAAGGUGACCUAG [Eternabot (L2) Solution 36] (Eterna round: R97, puzzle: Exclusion 3) | – | – | – | 417 nM | 411 nM | – |
| CUACCCUCAGGAUAUUUUGCACUGUACAUGAGGAUCACCCAUGUGACGUCUGUUAAUCAAAGAGAAGGGAGAGGUG [Eternabot (L1) Solution 27] (Eterna round: R97, puzzle: Exclusion 5) | – | – | – | 19.7 nM | 25.1 nM | – |
| CUACUGAAGCUUUGCUUUAGUCGACAUGAGGAUCACCCAUGUUAGGAUAUGGUAGGCUUUGCUUACUAGAAGGAUAGAGUGAUC [salish99_ExNG3_r04_603] (Eterna round: R96, puzzle: Exclusion NG 3) | – | – | – | 121 nM | 54.8 nM | 55.9 nM |
| CUACUGAAGCUUUGCUUUAGUCGUACAUGAGGAUCACCCAUGUAGGAUAUACAUGAGGAUCACCCAUAGAAGGAUAGAGUGAUC [salish99_ExNG3_r04_602] (Eterna round: R96, puzzle: Exclusion NG 3) | – | – | – | 36.1 nM | 38.6 nM | 31.2 nM |
| CUAGAUCUUCGGAUCUAGUACAUGAGGAUCACCCAUGUUACGAGCAGAUCUUCAUACAAGCUUUUUGCUCGUCUUAU [Sensor v3 - Turn-off variant 1 - 33] (puzzle: Sensor v3, turn-off variant 1) | 33.4 nM | 19.5 nM | 30.7 nM | – | – | – |
| CUAGCGAAUGUAGGAUAUCGGACUGUUUCAGUCUGAGAAGGACAUGAGGAUCACCCAUGUGAAGCUACGUGAGUAGCACGCUAG [JL ENG1 3.86] (Eterna round: R96, puzzle: Exclusion NG 1) | – | – | – | 111 nM | 23.2 nM | 18.7 nM |
| CUAGCUUCGGCUAGUACAAGCUUUUUGCUCGUCUUAUUAACAUGAGGAUCACCCAUGUACAAGAGACCUCAUGUAUU [Sensor v3 - turn-off variant 2 - 10] (puzzle: Sensor v3, turn-off variant 2) | 188 nM | 14.6 nM | 249 nM | – | – | – |
| CUAGGGCACAAUUAAACACCCUAACAUGAGGAUCACCCAUGUCAGGAUAUGUAGGCAAAGACCCUACAGAAGGGACAUGUCCUA [Laus] (Eterna round: R96, puzzle: Exclusion NG 3) | – | – | – | 21.1 nM | 15.2 nM | 9.38 nM |
| CUAGUAUAUCAGGAUAUGAUUUUAUAUAUUGGAUCAGAAGGGAUGACAUGAGGAUCACCCAUGUUGAGGAGUGA [JR_Ex6_Sub039] (Eterna round: R97, puzzle: Exclusion 6) | – | – | – | 257 nM | 103 nM | – |
| CUAGUGUAAGGAUAUGCCUGGCCGUGAGGCCAGAUUGAAUAGCAGAAGGUACAUGAGGAUCACCCAUGUACGGG [jl-ex4-4.62 ViennaUCT mod] (Eterna round: R97, puzzle: Exclusion 4) | – | – | – | 279 nM | 26.4 nM | – |
| CUAUAAGGUGUUAGGAUAUCGGCUCGAGGUACUAGCGAGAAGGAACAUGAGGAUCACCCAUGUGGUCAUGAUUU [Eternabot (L2) Solution 60] (Eterna round: R97, puzzle: Brourd's mod of Exclusion 4) | – | – | – | 152 nM | 139 nM | – |
| CUAUUCCGAGGAUAUACAUGAGGAUCACCCAUGUCGGGCCUCCGCGUUUCGCGCCUCAGUAGAAGGCGGGUUUC [JL Riri mod 1] (puzzle: Exclusion 3) | – | 18.3 nM | – | – | – | – |
| CUCAAACAUGAGGAUCACCCAUGUGAGGAUAUGAUGCGAUCGUCGAAAGACGAUAGCAUCAGAAGGUACAAAUG [Fiskers Ex 1 - 23] (puzzle: Exclusion 1) | 37.7 nM | 37.9 nM | 54.2 nM | – | – | – |
